Measurements reported in US9205136B2, “Human aminoacyl-tRNA synthetase polypeptides useful for the regulation of angiogenesis” (THE SCRIPPS RESEARCH INSTITUTE, priority 2000, dated 2015).
“Also recorded” adds a separate entry of the source.

Tests used:
MPs [1] = test: MP TNFα production (ELISA of culture supernatant); assay type: cell-based, human; settings: 1 nM sample protein, 14 hours
Experimental: (§1) Cells for the various cytokine assays described were prepared from acid citrate dextrose-treated blood of normal healthy volunteers. Human PMNs were isolated from the blood by centrifugation (700×g) over Histopaque 1077 and 1119 (Sigma). […] This procedure was repeated twice. Human MPs were isolated by centrifugation on Histopaque 1077 (Sigma). The mononuclear fraction was obtained, washed twice in Hanks' balanced salt solution, resuspended in RPMI-1640 medium (Sigma) containing 10% heat-inactivated fetal bovine serum (Sigma), plated in tissue culture flasks, and incubated in a 6% CO2 incubator at 37° C. for 1-2 hours (Kumagai et al., 1979, J. Immunol. Methods 29:17-25). Nonadherent cells were removed by washing the flasks three times with Hanks' balanced salt solution, and adherent cells were harvested by incubation with calcium-magnesium free phosphate-buffered saline containing 2 mM EDTA for 15 minutes at 4° C., followed by extensive washing.
MP TNFα production was examined following incubation of 10^5 MPs with 1 nM of sample protein for 14 hours. Aliquots of the culture supernatant were then assayed for TNFα production using a TNFα enzyme-linked immunosorbent assay kit (Sigma). Each determination shown in FIG. 2 represents the mean of four measurements from at least three independent experiments.

MPs [2] = test: MP tissue factor production (Factor VIIa-dependent Factor Xa formation); assay type: cell-based, human; settings: 1 nM sample protein, 4 hours
Experimental: as §1
MP tissue factor production was examined following incubation of 10^4 MPs with 1 nM of sample protein for 4 hours. Tissue factor activity was then inferred from measurements of Factor VIIa-dependent Factor Xa formation (Wolfson et al., 1990 J. Chromatogr., 503:277-81). Each determination shown in FIG. 2 represents the mean of four measurements from at least three independent experiments.

PMNs [3] = test: PMN chemotaxis assay (ChemoTX microchemotaxis chamber); assay type: cell-based, human; settings: for PMN chemotaxis (PMN migration): sample proteins 1 nM, 45 min
Procedure, shortened: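 Human PMNs were isolated from healthy-donor blood over Histopaque 1077/1119. 10^4 cells were placed in the upper compartment of a ChemoTX microchemotaxis chamber, with sample protein at 1 nM in the lower compartment. After 45 min, migrated cells were counted as the mean of nine HPFs.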

PMNs [4] = test: 125I-human mini TyrRS binding and competition assay on PMNs; settings: 10 nM 125I-mini TyrRS, 200-fold molar excess of unlabeled ligand, on ice 2 hours
Procedure, shortened: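 Human PMNs (2×10^6) in RPMI-1640 with 20 mM Hepes pH 7.4 and 10 mg/ml BSA were incubated with radioiodinated mini TyrRS. Bound and free label were separated by centrifugation through a 10% sucrose/PBS cushion, and cell-associated radioactivity was counted by scintillation.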

type A IL-8 receptor = biological target: T1, type A IL-8 receptor (Homo sapiens, UniProt P25024); test: Binding to RBL2H3 cells transfected with IL-8 receptor type A; settings: read-out: Kd on cells expressing the type A IL-8 receptor; transfected RBL2H3 rat basophilic leukemia cells
T1 construct: expressed in transfected cells; host or cells: RBL2H3 rat basophilic leukemia cells
T1 sequence (P25024 1-350): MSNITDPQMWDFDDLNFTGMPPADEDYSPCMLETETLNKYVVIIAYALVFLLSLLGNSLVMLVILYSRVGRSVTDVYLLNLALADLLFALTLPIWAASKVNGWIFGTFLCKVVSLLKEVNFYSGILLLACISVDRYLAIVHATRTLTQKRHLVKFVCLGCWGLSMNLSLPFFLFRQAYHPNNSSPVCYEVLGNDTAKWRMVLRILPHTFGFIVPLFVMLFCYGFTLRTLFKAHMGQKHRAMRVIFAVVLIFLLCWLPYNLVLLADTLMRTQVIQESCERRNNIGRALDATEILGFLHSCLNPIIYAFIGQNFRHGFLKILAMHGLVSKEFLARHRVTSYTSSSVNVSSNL
Experimental: (§2) Following incubation, cells were separated from unbound radioactivity as described herein.
(§3) Untransfected RBL2H3 cells express neither the type A nor type B receptors.

type B receptor = biological target: T2, type B receptor (Homo sapiens, UniProt P25025); test: Binding to RBL2H3 cells transfected with IL-8 receptor type B; settings: transfected RBL2H3 rat basophilic leukemia cells; read-out: Kd on cells expressing the type B receptor
T2 construct: expressed in transfected cells; host or cells: RBL2H3 rat basophilic leukemia cells
T2 sequence (P25025 1-360): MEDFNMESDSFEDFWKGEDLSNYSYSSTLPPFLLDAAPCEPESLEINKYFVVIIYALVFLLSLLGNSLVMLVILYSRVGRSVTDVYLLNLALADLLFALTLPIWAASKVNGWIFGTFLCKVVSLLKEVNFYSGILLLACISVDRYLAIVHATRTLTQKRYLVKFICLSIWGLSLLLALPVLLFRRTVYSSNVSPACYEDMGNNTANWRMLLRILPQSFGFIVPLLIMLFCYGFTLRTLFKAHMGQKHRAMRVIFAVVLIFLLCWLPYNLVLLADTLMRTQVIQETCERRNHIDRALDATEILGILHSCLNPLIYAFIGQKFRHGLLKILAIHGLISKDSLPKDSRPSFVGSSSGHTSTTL
Experimental: as §2, §3

[5] = system: chick chorioallantoic membrane (CAM); test: In vivo angiogenesis assay in chick chorioallantoic membrane (CAM); settings: 250 ng TyrRS molecule or 25 ng VEGF165 on filter disk, 72 hours
Experimental: In vivo angiogenesis assays were conducted in chick chorioallantoic membrane (CAM) (Nicolaou et al., 1998, Bioorg. Med. Chem. 6:1185-208). Ten-day-old chick embryos were purchased from Mcintyre Poultry (Lakeside, Calif.) and were incubated at 37° C. and 70% humidity. A small hole was made with a small crafts drill (Dremel, Emerson Electric, Racine, Wis.) directly over the air sac at the end of the egg. The embryos were candled to determine a location to drill a second hole directly over embryonic blood vessels. […] A window was cut in the eggshell over the dropped CAM, exposing the CAM to direct access for experimental manipulation. Cortisone acetate-treated 5 mm filter disks were soaked with a particular protein sample (25 ng of VEGF165 or 250 ng of a given TyrRS molecule) and the filter disks added directly to the CAMs, which were relatively devoid of preexisting blood vessels. The windows were sealed with sterile tape and incubated at 37° C. […] After 72 hours, the CAM tissue associated with the filter disk was harvested and quantified using a stereomicroscope. Angiogenesis was assessed as the number of visible blood vessel branch points within the defined area of the filter disks. Each determination shown in FIG. 17 represents the mean from 5-8 embryos.

B1: mini TyrRS: truncated TyrRS, residues 1-364 of full-length TyrRS, amino-terminal catalytic domain (protein)
chain: MGDAPSPEEKLHLITRNLQEVLGEEKLKEILKERELKIYWGTATTGKPHVAYFVPMSKIADFLKAGCEVTILFADLHAYLDNMKAPWELLELRVSYYENVIKAMLESIGVPLEKLKFIKGTDYQLSKEYTLDVYRLSSVVTQHDSKKAGAEVVKQVEHPLLSGLLYPGLQALDEEYLKVDAQFGGIDQRKIFTFAEKYLPALGYSKRVHLMNPMVPGLTGSKMSSSEEESKIDLLDRKEDVKKKLKKAFCEPGNVENNGVLSFIKHVLFPLKSEFVILRDEKWGGNKTYTAYVDLEKDFAAEVVHPGDLKNSVEVALNKLLDPIREKFNTPALKKLASAAYPDPSKQKPMAKGPAKNSEPEEVILEHHHHHH
modifications: His6 tag; Human mini TyrRS in pET20B
notes: truncated TyrRS, residues 1-364 of full-length TyrRS, amino-terminal catalytic domain
MPs [1]
  MP TNFα production: did not stimulate production
MPs [2]
  MP tissue factor production: did not stimulate production
PMNs [3]
  concentration dependence of PMN migration: bell-shaped concentration dependence
  PMN chemotaxis (PMN migration): did induce PMN migration
PMNs [3]; listed as human mini TyrRS
  PMN chemotaxis (PMN migration): led to an induction of PMN migration
PMNs [4]
  inhibition of 125I-mini TyrRS binding to PMNs by unlabeled ligand: inhibited the binding; also recorded: inhibited by the presence of excess amounts of unlabeled mini TyrRS
Type A IL-8 receptor
  Kd: 8 nM
Type B receptor
  Kd: > 200 nM
[5]
  in vivo angiogenesis in chick CAM (blood vessel branch points): induced angiogenesis
